We go through three compounds from patent US20260183405A1, “SMALL MOLECULE-DRUG-CONJUGATES CLEAVABLE IN A TUMOR MICROENVIRONMENT” (priority 2022, published 2026).

Like-named read-outs stand apart in the source and are kept apart here.

Data set [1] is described as follows: Stability in buffer. It is filed as physicochemical. Particulars: HPLC peak area in percentage. As for the experimental part: 0.15 mg of the test compound are solved in 0.1 ml dimethylsulfoxide and 0.4 ml acetonitrile. For complete dissolution the HPLC vial with the sample solution is shaken and sonicated. Then 1.0 ml of the respective buffer solution is added, and the sample is vortexed. The sample solution is analysed by HPLC to determine the amount of the test compound and up to two byproducts at a particular time over a period of 24 h at 37° C. to values result from a sample immediately taken after vortexing with buffer at RT. The peak areas (in percentage) are used for quantification.

Data set [2] is described as follows: Pharmacokinetics in rat after intravenous administration. It is filed as in vivo. As to conditions: plasma, male rats, intravenous bolus 0.5 mg/kg; for clearance: read-out: CL plasma; for Vd: read-out: VSS. As for the experimental part:
Male rats (n=3) were given an intravenous 0.5 mg/kg bolus dose of test article dissolved in plasma with 1% DMSO and 2% ethanol. Serial blood samples were collected up to 24 hours post-dose. Plasma was harvested from blood samples and stored frozen until sample analysis. Test article plasma concentrations were analyzed by LC/MS/MS. Pharmacokinetic parameters were calculated using non-compartmental analysis.

The target in data set [3] is T1, human Elastase (Homo sapiens, UniProt P08246).
T1 sequence (P08246 30-267): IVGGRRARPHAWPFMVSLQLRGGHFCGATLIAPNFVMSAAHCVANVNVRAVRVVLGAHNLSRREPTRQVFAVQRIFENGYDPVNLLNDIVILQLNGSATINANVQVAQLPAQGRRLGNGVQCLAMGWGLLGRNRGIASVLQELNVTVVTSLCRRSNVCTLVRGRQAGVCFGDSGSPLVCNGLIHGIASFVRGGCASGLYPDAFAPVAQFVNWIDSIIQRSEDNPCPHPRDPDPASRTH
Briefly: Elastase cleavability test. The class given is biochemical. Particulars: 5 μM test compound, 1 h at 37° C. As to the method: The test compound was added to buffer (150 mM NaCl, 10 mM CaCl2, 0.05% BSA) to a final concentration of 5 μM (0.5% DMSO). The reaction was started by adding different concentrations of human Elastase (0, 20, 40, 60 nM) to the reaction vials. After incubation for 1 h at 37° C., the enzymatic reaction was stopped by precipitation in 50% ACN. Subsequently, the samples were subjected to HPLC-MS analysis to determine the concentration of test compound and of its metabolite.

Data set [4] is described as follows: Stability in rat plasma. The class given is in vitro ADME. As to conditions: 37° C., percent area of the initial compound at t0 (HPLC), read-out: Stability rat plasma after 4 h. As to the method: (§1) 1 mg of the respective test compound of is dissolved in a mixture of 1.5 mL dimethylsulfoxide and 1 ml water. For complete dissolution, the HPLC vial is shaken and treated with an ultrasound. 500 μl of this solution is added to 0.5 mL of plasma with vortexing at a temperature of 37° C. Aliquots (10 μL each) are taken at respective time points and analyzed by HPLC to determine the amount of the test compound. All data is given as percent area of the initial compound at to.

Data set [5] relates to NCI-H292. Description: Cytotoxicity in vitro in the presence and absence of elastase (MTT assay). It is filed as cell-based. Particulars: NCI-H292 cells, 72 h incubation. The method, boiled down:
(§2)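 After overnight-scale settling (24 h) and medium exchange, compound is added with or without 10 nM elastase and incubated 72 h. Viability is read by MTT absorbance at 570 nm, and IC50 values are taken from dose-response curves.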
Background: Tetrazolium assays rely on reduction of a dye to a coloured formazan, in cell work by metabolically active cells.

Data set [6] relates to SUM149PT. The data set is described as above. The class given is cell-based. Particulars: SUM149PT cells, 72 h incubation. The method, boiled down: as §2
For data set [7], the system named is HT29. The data set is described as above. It is filed as cell-based. Particulars: HT29 cells, 72 h incubation. The method, boiled down:
as §2

The subject of data set [8] is 786-O. The data set is described as above. As to conditions: 786-O cells, 72 h incubation. The class given is cell-based. The method, boiled down: as §2
The nature of data set [9]: Stability in human plasma. Particulars: 37° C., percent area of the initial compound at t0 (HPLC), read-out: Stability human plasma after 4 h. It is filed as in vitro ADME. As for the experimental part: as §1
[10] abbreviates: buffer pH 4, 37° C., read-out: Stability buffer pH 4 after 24 h.
[11] abbreviates: compound alone, read-out: IC50 without neutrophil elastase.
[12] abbreviates: with 10 nM elastase (NE), read-out: IC50 with neutrophil elastase.
The mark [13] stands for this setting: buffer pH 7.4, 37° C., read-out: Stability buffer pH 7.4 after 24 h.

As usually defined, the AUC is the area under the concentration-time curve, a measure of exposure. A low value points to less exposure. The half-life is the time in which the quantity being followed falls by half. Usually IC50 stands for the concentration that inhibits the measured activity by half. For the compound `CCCNC(=O)Nc1cccc(S(=O)(=O)Nc2cccc([C@@H](CC(=O)O)NC(=O)Nc3ccc(NC(=O)NCCOCCOCCOCCC(=O)N[C@@H](CC(N)=O)C(=O)N4CCC[C@H]4C(=O)N[C@H](C(=O)NCCCN(C(=O)CO)[C@@H](c4cc(-c5cc(F)ccc5F)cn4Cc4ccccc4)C(C)(C)C)C(C)C)cc3)c2)c1` [Compound 17, sodium N^2-(14-{4-[({(1R)-2-carboxylato-1-[3-({3-[(propylcarbamoyl)amino]benzene-1-sulfonyl}amino)phenyl]ethyl}carbamoyl)amino]anilino}-14-oxo-4,7,10-trioxa-13-azatetradecanan-1-oyl)-L-asparaginyl-L-prolyl-N-{3-[{(1R)-1-[1-benzyl-4-(2,5-difluorophenyl)-1H-pyrrol-2-yl]-2,2-dimethylpropyl}(hydroxyacetyl)amino]propyl}-L-valinamide], the remaining at 24 h, 0.1 mg/mL in data set [1] (setting [10]) was 100%. Also, in [1] (buffer pH 7.4, 37° C.), the “Stability buffer pH 7.4 after 24 h” value is recorded as 100%. The compound also returned an area under the curve (AUC) in data set [2] of 1000 to 10000 ng·h/mL. Further, the half-life in data set [2] fell in the range of 5 to 10 h. Moreover, the clearance in [2] lay within 0.5 to 5 mL/min/kg. Besides, the Vd in data set [2] was in the range of 0.3 to 0.9 L/kg. The figures for the “Payload release after 1 h” value in data set [3] (Elastase Concentration 0 nM) and in data set [3] (Elastase Concentration 20 nM) were “D (D = <1%)” and “C (C = >1%)”, respectively. In addition, the remaining at 4 h, 0.2 mg/mL in data set [4] and in data set [9] was 100% in each case. Besides, the half-inhibitory concentration (IC50) is 100 to 999 nM in data set [5] (setting [11]); 1 to 9.9 nM in data set [5] (setting [12]); 100 to 999 nM in data set [6] (setting [11]); 0.1 to 1 nM in data set [6] (setting [12]); above 1000 nM in [7] (setting [11]); 1 to 9.9 nM in data set [7] (setting [12]). For the same compound, the values for the IC50 in [8] (setting [11]) and in [8] (setting [12]) were above 1000 nM and 1 to 9.9 nM, respectively.

As for `CCCNC(=O)Nc1cccc(S(=O)(=O)Nc2cccc([C@@H](CC(=O)O)NC(=O)Nc3ccc(NC(=O)NCCOCCOCCOCCC(=O)N[C@@H](CC(=O)O)C(=O)N4CCC[C@H]4C(=O)N[C@H](C(=O)N[C@@H](CCN(C(=O)CO)[C@@H](c4cc(-c5cc(F)ccc5F)cn4Cc4ccccc4)C(C)(C)C)C(=O)NC)C(C)C)cc3)c2)c1` [Compound 26, disodium 1-[(2S)-2-(carboxylatomethyl)-17-{4-[({(1R)-2-carboxylato-1-[3-({3-[(propylcarbamoyl)amino]benzene-1-sulfonyl}amino)phenyl]ethyl}carbamoyl)amino]anilino}-4,17-dioxo-7,10,13-trioxa-3,16-diazaheptadecanan-1-oyl]-L-prolyl-N-[(2S)-4-[{(1R)-1-[1-benzyl-4-(2,5-difluorophenyl)-1H-pyrrol-2-yl]-2,2-dimethylpropyl}(hydroxyacetyl)amino]-1-(methylamino)-1-oxobutan-2-yl]-L-valinamide], the remaining at 24 h, 0.1 mg/mL in data set [1] (setting [10]) was determined as 94%; in data set [1] (setting [13]) it was 100%. In addition, in data set [2], the exposure (AUC) lay in the range of 1000 to 10000 ng·h/mL. For the same compound, in data set [2], the half-life is below 0.5 h. Moreover, the clearance in data set [2] was in the range of 0.5 to 5 mL/min/kg. Further, the Vd in [2] lay in the range of 0.01 to 0.1 L/kg. Moreover, the “Payload release after 1 h” value in data set [3] (Elastase Concentration 0 nM) is recorded as “D (D = <1%)”; in [3] (Elastase Concentration 20 nM), “B (B = >20%)”. Also, the remaining at 4 h, 0.2 mg/mL in [4] and in data set [9] was 100% in each case. Also, the IC50 in [5] (setting [11]) is above 1000 nM; in data set [5] (setting [12]) it was 1 to 9.9 nM; in [6] (setting [11]), above 1000 nM; in [6] (setting [12]), 0.1 to 1 nM; in [7] (setting [11]), above 1000 nM; in data set [7] (setting [12]), 1 to 9.9 nM.

For `CCCNC(=O)Nc1cccc(S(=O)(=O)Nc2cccc([C@@H](CC(=O)O)NC(=O)Nc3ccc(NC(=O)NCCOCCOCCOCCC(=O)N[C@@H](CC(=O)O)C(=O)N4CCC[C@H]4C(=O)N[C@H](C(=O)O[C@@H](c4ccccc4)[C@@H](C)NC(=O)[C@H](C)C(OC)[C@@H]4CCCN4C(=O)CC(OC)[C@H]([C@@H](C)CC)N(C)C(=O)[C@@H](NC(=O)[C@@H](NC)C(C)C)C(C)C)C(C)C)cc3)c2)c1` (some centres unmarked) [Compound 13], the remaining at 24 h, 0.1 mg/mL in data set [1] (setting [10]) was determined as 92%; in data set [1] (setting [13]), 100%. For the same compound, in data set [2], the AUC is 1000 to 10000 ng·h/mL. Further, the half-life in [2] lay within 1 to 5 h. Besides, the clearance in data set [2] was 0.5 to 5 mL/min/kg. Moreover, in data set [2], the Vd is 0.1 to 0.3 L/kg. In addition, the “Payload release after 1 h” value in data set [3] (Elastase Concentration 0 nM) is given as “D (D = <1%)”; in [3] (Elastase Concentration 20 nM) it was “A (A = >70%)”. In addition, the remaining at 4 h, 0.2 mg/mL in data set [4] and in [9] was 100% each time.
